Assay results: patent US20200188539A1

Molecular target: prostate specific membrane antigen (human (human prostate LNCaP cells)) (UniProt Q04609)
Assay: cell-based or functional assay

Chain of prostate specific membrane antigen (human (human prostate LNCaP cells)) (Q04609 whole entry): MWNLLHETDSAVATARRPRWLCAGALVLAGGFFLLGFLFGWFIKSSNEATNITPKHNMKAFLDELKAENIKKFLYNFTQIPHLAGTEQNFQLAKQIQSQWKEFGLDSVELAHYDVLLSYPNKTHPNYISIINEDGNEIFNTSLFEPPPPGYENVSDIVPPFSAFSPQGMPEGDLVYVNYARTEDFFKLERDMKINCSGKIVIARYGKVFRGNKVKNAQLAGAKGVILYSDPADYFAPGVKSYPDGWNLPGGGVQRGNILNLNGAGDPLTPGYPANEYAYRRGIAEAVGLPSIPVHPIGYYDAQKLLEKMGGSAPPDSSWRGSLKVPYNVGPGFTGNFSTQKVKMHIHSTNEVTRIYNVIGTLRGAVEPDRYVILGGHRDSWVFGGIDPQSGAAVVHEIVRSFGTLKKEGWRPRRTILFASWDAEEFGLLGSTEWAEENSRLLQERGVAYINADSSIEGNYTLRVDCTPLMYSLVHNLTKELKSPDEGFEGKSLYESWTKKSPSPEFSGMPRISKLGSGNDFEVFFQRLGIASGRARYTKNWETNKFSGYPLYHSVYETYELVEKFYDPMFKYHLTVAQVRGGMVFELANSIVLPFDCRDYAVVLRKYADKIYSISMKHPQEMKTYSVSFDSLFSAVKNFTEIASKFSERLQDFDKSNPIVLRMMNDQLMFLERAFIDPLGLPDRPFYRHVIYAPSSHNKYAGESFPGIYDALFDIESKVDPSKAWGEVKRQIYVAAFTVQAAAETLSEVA

IC50 (NAALADase assay in human prostate LNCaP cells, [N-acetyl aspartyl 3H-glutamate]): 9.3 nM | IC50 LNCaP cells (NAALADase assay, [N-acetyl aspartyl 3H-glutamate] substrate, LNCaP homogenized cell membranes): 10.5 nM
Substance: [DUPA-6-Ahx-Lys(DOTA)-6-Ahx-RM2] (peptide)
